# B1: XENP37561 (bispecific antibody)
# chain 1: EVQLLESGGGLVQPGGSLRLSCAASGFTFSSYDMSWVRQAPGKRLEWVSTISSGGSFTHYPDSVKGRFTISRDNSKNTLYLQMNSLRAEDTAVYYCVRRSGDWYFDVWGAGTTVTVSSASTKGPSVFPLAPSSKSTSGGTAALGCLVKDYFPEPVTVSWNSGALTSGVHTFPAVLQSSGLYSLSSVVTVPSSSLGTQTYICNVNHKPSDTKVDKKVEPKSCDKTHTCPPCPAPPVAGPSVFLFPPKPKDTLMISRTPEVTCVVVDVKHEDPEVKFNWYVDGVEVHNAKTKPREEEYNSTYRVVSVLTVLHQDWLNGKEYKCKVSNKALPAPIEKTISKAKGQPREPQVYTLPPSREEMTKNQVSLTCDVSGFYPSDIAVEWESDGQPENNYKTTPPVLDSDGSFFLYSKLTVDKSRWEQGDVFSCSVMHEALHNHYTQKSLSLSPGK
# chain 2: not shown
# chain 3: EIVLTQSPGTLSLSPGERATLSCRVSSSISSSNLHWYQQKPGQSPRPLIYGTSNLASGVPVRFSGSGSGTDYTLTISRLEPEDFAVYYCQQWSSYPLYTFGGGTKVEIKRTVAAPSVFIFPPSDEQLKSGTASVVCLLNNFYPREAKVQWKVDNALQSGNSQESVTEQDSKDSTYSLSSTLTLSKADYEKHKVYACEVTHQGLSSPVTKSFNRGEC
# B2: XENP37261 (bispecific antibody)
# chain 1: EVQLLESGGGLVQPGGSLRLSCAASGFTFSSYDMSWVRQAPGKRLEWVSTISSGGSFTHYPDSVKGRFTISRDNSKNTLYLQMNSLRAEDTAVYYCVRRSGDWYFDVWGAGTTVTVSSASTKGPSVFPLAPSSKSTSGGTAALGCLVKDYFPEPVTVSWNSGALTSGVHTFPAVLQSSGLYSLSSVVTVPSSSLGTQTYICNVNHKPSDTKVDKKVEPKSCDKTHTCPPCPAPPVAGPSVFLFPPKPKDTLMISRTPEVTCVVVDVKHEDPEVKFNWYVDGVEVHNAKTKPREEEYNSTYRVVSVLTVLHQDWLNGKEYKCKVSNKALPAPIEKTISKAKGQPREPQVYTLPPSREEMTKNQVSLTCDVSGFYPSDIAVEWESDGQPENNYKTTPPVLDSDGSFFLYSKLTVDKSRWEQGDVFSCSVMHEALHNHYTQKSLSLSPGK
# chain 2: not shown
# chain 3: EIVLTQSPGTLSLSPGERATLSCRVSSSISSSNLHWYQQKPGQSPRPLIYGTSNLASGVPVRFSGSGSGTDYTLTISRLEPEDFAVYYCQQWSSYPLYTFGGGTKVEIKRTVAAPSVFIFPPSDEQLKSGTASVVCLLNNFYPREAKVQWKVDNALQSGNSQESVTEQDSKDSTYSLSSTLTLSKADYEKHKVYACEVTHQGLSSPVTKSFNRGEC
# B3: XENP37560 (bispecific antibody)
# chain 1: EVQLLESGGGLVQPGGSLRLSCAASGFTFSSYDMSWVRQAPGKRLEWVSTISSGGSFTHYPDSVKGRFTISRDNSKNTLYLQMNSLRAEDTAVYYCVRRSGDWYFDVWGAGTTVTVSSASTKGPSVFPLAPSSKSTSGGTAALGCLVKDYFPEPVTVSWNSGALTSGVHTFPAVLQSSGLYSLSSVVTVPSSSLGTQTYICNVNHKPSDTKVDKKVEPKSCDKTHTCPPCPAPPVAGPSVFLFPPKPKDTLMISRTPEVTCVVVDVKHEDPEVKFNWYVDGVEVHNAKTKPREEEYNSTYRVVSVLTVLHQDWLNGKEYKCKVSNKALPAPIEKTISKAKGQPREPQVYTLPPSREEMTKNQVSLTCDVSGFYPSDIAVEWESDGQPENNYKTTPPVLDSDGSFFLYSKLTVDKSRWEQGDVFSCSVMHEALHNHYTQKSLSLSPGK
# chain 2: not shown
# chain 3: EIVLTQSPGTLSLSPGERATLSCRVSSSISSSNLHWYQQKPGQSPRPLIYGTSNLASGVPVRFSGSGSGTDYTLTISRLEPEDFAVYYCQQWSSYPLYTFGGGTKVEIKRTVAAPSVFIFPPSDEQLKSGTASVVCLLNNFYPREAKVQWKVDNALQSGNSQESVTEQDSKDSTYSLSSTLTLSKADYEKHKVYACEVTHQGLSSPVTKSFNRGEC
# B4: XENP37559 (bispecific antibody)
# chain 1: EVQLLESGGGLVQPGGSLRLSCAASGFTFSSYDMSWVRQAPGKRLEWVSTISSGGSFTHYPDSVKGRFTISRDNSKNTLYLQMNSLRAEDTAVYYCVRRSGDWYFDVWGAGTTVTVSSASTKGPSVFPLAPSSKSTSGGTAALGCLVKDYFPEPVTVSWNSGALTSGVHTFPAVLQSSGLYSLSSVVTVPSSSLGTQTYICNVNHKPSDTKVDKKVEPKSCDKTHTCPPCPAPPVAGPSVFLFPPKPKDTLMISRTPEVTCVVVDVKHEDPEVKFNWYVDGVEVHNAKTKPREEEYNSTYRVVSVLTVLHQDWLNGKEYKCKVSNKALPAPIEKTISKAKGQPREPQVYTLPPSREEMTKNQVSLTCDVSGFYPSDIAVEWESDGQPENNYKTTPPVLDSDGSFFLYSKLTVDKSRWEQGDVFSCSVMHEALHNHYTQKSLSLSPGK
# chain 2: not shown
# chain 3: EIVLTQSPGTLSLSPGERATLSCRVSSSISSSNLHWYQQKPGQSPRPLIYGTSNLASGVPVRFSGSGSGTDYTLTISRLEPEDFAVYYCQQWSSYPLYTFGGGTKVEIKRTVAAPSVFIFPPSDEQLKSGTASVVCLLNNFYPREAKVQWKVDNALQSGNSQESVTEQDSKDSTYSLSSTLTLSKADYEKHKVYACEVTHQGLSSPVTKSFNRGEC
# B5: XENP37412 (bispecific antibody)
# chain 1: EVQLLESGGGLVQPGGSLRLSCAASGFTFSSYDMSWVRQAPGKRLEWVSTISSGGSFTHYPDSVKGRFTISRDNSKNTLYLQMNSLRAEDTAVYYCVRRSGDWYFDVWGAGTTVTVSSASTKGPSVFPLAPSSKSTSGGTAALGCLVKDYFPEPVTVSWNSGALTSGVHTFPAVLQSSGLYSLSSVVTVPSSSLGTQTYICNVNHKPSDTKVDKKVEPKSCDKTHTCPPCPAPPVAGPSVFLFPPKPKDTLMISRTPEVTCVVVDVKHEDPEVKFNWYVDGVEVHNAKTKPREEEYNSTYRVVSVLTVLHQDWLNGKEYKCKVSNKALPAPIEKTISKAKGQPREPQVYTLPPSREEMTKNQVSLTCDVSGFYPSDIAVEWESDGQPENNYKTTPPVLDSDGSFFLYSKLTVDKSRWEQGDVFSCSVMHEALHNHYTQKSLSLSPGK
# chain 2: not shown
# chain 3: EIVLTQSPGTLSLSPGERATLSCRVSSSISSSNLHWYQQKPGQSPRPLIYGTSNLASGVPVRFSGSGSGTDYTLTISRLEPEDFAVYYCQQWSSYPLYTFGGGTKVEIKRTVAAPSVFIFPPSDEQLKSGTASVVCLLNNFYPREAKVQWKVDNALQSGNSQESVTEQDSKDSTYSLSSTLTLSKADYEKHKVYACEVTHQGLSSPVTKSFNRGEC
# B6: XENP36233 (bispecific antibody)
# chain 1: EVQLLESGGGLVQPGGSLRLSCAASGFTFSSYDMSWVRQAPGKRLEWVSTISSGGSFTHYPDSVKGRFTISRDNSKNTLYLQMNSLRAEDTAVYYCVRRSGDWYFDVWGAGTTVTVSSASTKGPSVFPLAPSSKSTSGGTAALGCLVKDYFPEPVTVSWNSGALTSGVHTFPAVLQSSGLYSLSSVVTVPSSSLGTQTYICNVNHKPSDTKVDKKVEPKSCDKTHTCPPCPAPPVAGPSVFLFPPKPKDTLMISRTPEVTCVVVDVKHEDPEVKFNWYVDGVEVHNAKTKPREEEYNSTYRVVSVLTVLHQDWLNGKEYKCKVSNKALPAPIEKTISKAKGQPREPQVYTLPPSREEMTKNQVSLTCDVSGFYPSDIAVEWESDGQPENNYKTTPPVLDSDGSFFLYSKLTVDKSRWEQGDVFSCSVMHEALHNHYTQKSLSLSPGK
# chain 2: not shown
# chain 3: EIVLTQSPGTLSLSPGERATLSCRVSSSISSSNLHWYQQKPGQSPRPLIYGTSNLASGVPVRFSGSGSGTDYTLTISRLEPEDFAVYYCQQWSSYPLYTFGGGTKVEIKRTVAAPSVFIFPPSDEQLKSGTASVVCLLNNFYPREAKVQWKVDNALQSGNSQESVTEQDSKDSTYSLSSTLTLSKADYEKHKVYACEVTHQGLSSPVTKSFNRGEC
# B7: XENP38514 (bispecific antibody)
# heavy: EVQLLESGGGLVQPGGSLRLSCAASGFTFSVYDMSWVRQAPGKRLEWVSTISSGGSFTHYPDSVKGRFTISRDNSKNTLYLQMNSLRAEDTAVYYCVRRSLDWYFDVWGAGTTVTVSSASTKGPSVFPLAPSSKSTSGGTAALGCLVKDYFPEPVTVSWNSGALTSGVHTFPAVLQSSGLYSLSSVVTVPSSSLGTQTYICNVNHKPSDTKVDKKVEPKSCDKTHTCPPCPAPPVAGPSVFLFPPKPKDTLMISRTPEVTCVVVDVKHEDPEVKFNWYVDGVEVHNAKTKPREEEYNSTYRVVSVLTVLHQDWLNGKEYKCKVSNKALPAPIEKTISKAKGQPREPQVYTLPPSREEMTKNQVSLTCDVSGFYPSDIAVEWESDGQPENNYKTTPPVLDSDGSFFLYSKLTVDKSRWEQGDVFSCSVMHEALHNHYTQKSLSLSPGK
# scFv-Fc: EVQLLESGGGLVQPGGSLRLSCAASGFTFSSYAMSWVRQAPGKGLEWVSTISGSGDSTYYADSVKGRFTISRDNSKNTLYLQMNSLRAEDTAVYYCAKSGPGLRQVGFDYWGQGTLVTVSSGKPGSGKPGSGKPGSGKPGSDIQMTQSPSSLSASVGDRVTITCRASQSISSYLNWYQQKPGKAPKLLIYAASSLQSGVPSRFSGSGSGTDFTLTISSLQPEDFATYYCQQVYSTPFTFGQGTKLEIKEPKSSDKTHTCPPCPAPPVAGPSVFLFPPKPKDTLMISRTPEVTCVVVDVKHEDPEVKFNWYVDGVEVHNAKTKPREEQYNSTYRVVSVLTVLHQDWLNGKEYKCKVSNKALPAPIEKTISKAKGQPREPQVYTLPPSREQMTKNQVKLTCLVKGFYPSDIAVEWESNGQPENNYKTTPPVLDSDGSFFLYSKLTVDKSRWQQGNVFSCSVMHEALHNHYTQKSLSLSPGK
# light: EIVLTQSPGTLSLSPGERATLSCRVSSSIQSTNLHWYQQKPGQSPRPLIYGTSVLATGVPVRFSGSGSGTDYTLTISRLEPEDFAVYYCQQWSSYPLYTFGGGTKVEIKRTVAAPSVFIFPPSDEQLKSGTASVVCLLNNFYPREAKVQWKVDNALQSGNSQESVTEQDSKDSTYSLSSTLTLSKADYEKHKVYACEVTHQGLSSPVTKSFNRGEC
# notes: also called αPDL1×αCD28 bsAb XENP38514
# B8: PDL1 binding domain 2G4_H1.12_L1.68 (Fab, V domains shown)
# VH: EVQLLESGGGLVQPGGSLRLSCAASGFTFSVYDMSWVRQAPGKRLEWVSTISSGGSFTHYPDSVKGRFTISRDNSKNTLYLQMNSLRAEDTAVYYCVRRSLDWYFDVWGAGTTVTVSS
# VL: EIVLTQSPGTLSLSPGERATLSCRVSSSIQSTNLHWYQQKPGQSPRPLIYGTSNLASGVPVRFSGSGSGTDYTLTISRLEPEDFAVYYCQQWSSYPLYTFGGGTKVEIK
# B9: PDL1 binding domain 2G4_H1.12_L1.14 (Fab, V domains shown)
# VH: EVQLLESGGGLVQPGGSLRLSCAASGFTFSVYDMSWVRQAPGKRLEWVSTISSGGSFTHYPDSVKGRFTISRDNSKNTLYLQMNSLRAEDTAVYYCVRRSLDWYFDVWGAGTTVTVSS
# VL: EIVLTQSPGTLSLSPGERATLSCRVSSSIQSSNLHWYQQKPGQSPRPLIYGTSNLASGVPVRFSGSGSGTDYTLTISRLEPEDFAVYYCQQWSSYPLYTFGGGTKVEIK
# notes: also called as in XENP40409 and XENP40706
# B10: PDL1 binding domain 2G4_H1.12_L1.66 (Fab, V domains shown)
# VH: EVQLLESGGGLVQPGGSLRLSCAASGFTFSVYDMSWVRQAPGKRLEWVSTISSGGSFTHYPDSVKGRFTISRDNSKNTLYLQMNSLRAEDTAVYYCVRRSLDWYFDVWGAGTTVTVSS
# VL: EIVLTQSPGTLSLSPGERATLSCRVSSSIQSTNLHWYQQKPGQSPRPLIYGTSNLATGVPVRFSGSGSGTDYTLTISRLEPEDFAVYYCQQWSSYPLYTFGGGTKVEIK
# Biological target: T1, human CD28 antigen (human, UniProt P10747 19-152)
# T1 construct: also called his-tagged CD28 antigen
# Assay: CD28 binding affinity; Octet per paragraph 712, scFv in 1+1 Fab-scFv-Fc PDL1×CD28 bsAb
row,Binder,Kd [µM]
1,B1,0.037
2,B2,0.036
3,B3,0.096
4,B4,0.18
5,B5,0.286
6,B6,0.24

# Biological target: T2, human PDL1 (human, UniProt Q9NZQ7 19-238)
# T2 construct: his-tagged in the Carterra assay; also called PDL1 antigen
# Assay: PDL1 binding affinity; Biacore per paragraph 695, in PDL1×CD28 bsAb
row,Binder,Kd [µM]
1,B7,0.00017
2,B8,0.0008
3,B9,0.00042
4,B10,0.00086
